Measurements reported in article PMC11970842.

Target: recombinant trypanothione reductase from Leishmania braziliensis (Leishmania braziliensis) (UniProt A4H480)

Substance: crotapotin from Crotalus durissus terrificus venom (natural protein)
- IC50 of inhibition of LbTR enzymatic activity (reduction of T[S]2, DTNB-coupled, absorbance at 412 nm; 0.04 µM enzyme, crotapotin 0, 100, 150 and 200 µM, 28 °C, pH 7.5): 224 μM
